Experimental data from the supplement of paper PMC9112550, “Optimization of the antimicrobial peptide Bac7 by deep mutational scanning” (BMC Biology, 2022).

tested on: Escherichia coli TOP10; test: shrunken log2 fold change of peptide-encoding DNA abundance (4.5 h post-induction vs induction); higher = less antimicrobial activity (less host growth inhibition); conditions: time post-induction: 4.5 h; library: site-saturation at positions 5, 18, 19, 20
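Further: peptides expressed intracellularly from a pBAD plasmid library in pooled LB shake-flask culture, induced with 0.3% L-arabinose, DNA abundance read by NGS, three biological replicates, DESeq2 with apeglm shrinkage.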

Sequence	shrunken log2 fold change
RRIRMRPPRLPRPRPRPNANPRP	0.777
RRIRMRPPRLPRPRPRPNCRPRP	-0.135
RRIRMRPPRLPRPRPRPNDEPRP	0.699
RRIRMRPPRLPRPRPRPNDKPRP	0.145
RRIRMRPPRLPRPRPRPNDYPRP	-0.103
RRIRMRPPRLPRPRPRPNHCPRP	0.0039
RRIRMRPPRLPRPRPRPNHWPRP	0.14
RRIRMRPPRLPRPRPRPNLEPRP	0.284
RRIRMRPPRLPRPRPRPNMAPRP	0.155
RRIRMRPPRLPRPRPRPNMKPRP	0.0548
RRIRMRPPRLPRPRPRPNMTPRP	0.188
RRIRMRPPRLPRPRPRPNPDPRP	0.377
RRIRMRPPRLPRPRPRPNRPPRP	-0.0884
RRIRMRPPRLPRPRPRPNSAPRP	0.0568
RRIRMRPPRLPRPRPRPNSDPRP	0.0685
RRIRMRPPRLPRPRPRPNVCPRP	-0.00865
RRIRMRPPRLPRPRPRPNVSPRP	0.141
RRIRMRPPRLPRPRPRPNYFPRP	0.0511
RRIRMRPPRLPRPRPRPPCVPRP	0.389
RRIRMRPPRLPRPRPRPPEEPRP	2.13
RRIRMRPPRLPRPRPRPPFIPRP	0.082
RRIRMRPPRLPRPRPRPPGCPRP	0.451
RRIRMRPPRLPRPRPRPPGDPRP	1.51
RRIRMRPPRLPRPRPRPPGIPRP	1.2
RRIRMRPPRLPRPRPRPPHAPRP	1.65

Sequence	shrunken log2 fold change
RRIRMRPPRLPRPRPRPPILPRP	0.0619
RRIRMRPPRLPRPRPRPPLKPRP	1.23
RRIRMRPPRLPRPRPRPPMSPRP	-0.114
RRIRMRPPRLPRPRPRPPMVPRP	0.188
RRIRMRPPRLPRPRPRPPMWPRP	-0.0434
RRIRMRPPRLPRPRPRPPNGPRP	0.234
RRIRMRPPRLPRPRPRPPNNPRP	0.436
RRIRMRPPRLPRPRPRPPPMPRP	1.54
RRIRMRPPRLPRPRPRPPQQPRP	0.945
RRIRMRPPRLPRPRPRPPRQPRP	1.43
RRIRMRPPRLPRPRPRPPRRPRP	1.47
RRIRMRPPRLPRPRPRPPRWPRP	-0.117
RRIRMRPPRLPRPRPRPPRYPRP	1.71
RRIRMRPPRLPRPRPRPPTAPRP	1.03
RRIRMRPPRLPRPRPRPPTWPRP	0.627
RRIRMRPPRLPRPRPRPPVGPRP	1.06
RRIRMRPPRLPRPRPRPPWRPRP	1.34
RRIRMRPPRLPRPRPRPQAMPRP	0.318
RRIRMRPPRLPRPRPRPQCFPRP	0.275
RRIRMRPPRLPRPRPRPQDHPRP	-0.0101
RRIRMRPPRLPRPRPRPQDMPRP	-0.0638
RRIRMRPPRLPRPRPRPQDTPRP	-0.0435
RRIRMRPPRLPRPRPRPQEEPRP	-0.0207
RRIRMRPPRLPRPRPRPQEHPRP	0.0123
RRIRMRPPRLPRPRPRPQGHPRP	0.0616

Sequence	shrunken log2 fold change
RRIRMRPPRLPRPRPRPQHAPRP	0.0286
RRIRMRPPRLPRPRPRPQIQPRP	-0.0708
RRIRMRPPRLPRPRPRPQKFPRP	-0.000921
RRIRMRPPRLPRPRPRPQLFPRP	0.0897
RRIRMRPPRLPRPRPRPQMNPRP	-0.253
RRIRMRPPRLPRPRPRPQNLPRP	0.12
RRIRMRPPRLPRPRPRPQNMPRP	-0.631
RRIRMRPPRLPRPRPRPQQGPRP	-0.121
RRIRMRPPRLPRPRPRPQQHPRP	0.0483
RRIRMRPPRLPRPRPRPQRAPRP	0.943
RRIRMRPPRLPRPRPRPQRNPRP	0.209
RRIRMRPPRLPRPRPRPQRPPRP	0.389
RRIRMRPPRLPRPRPRPQRWPRP	0.637
RRIRMRPPRLPRPRPRPQWIPRP	-0.00285
RRIRMRPPRLPRPRPRPQYPPRP	-0.0385
RRIRMRPPRLPRPRPRPQYVPRP	-0.0961
RRIRMRPPRLPRPRPRPRANPRP	0.922
RRIRMRPPRLPRPRPRPRCCPRP	0.373
RRIRMRPPRLPRPRPRPRDQPRP	0.776
RRIRMRPPRLPRPRPRPRDRPRP	1.11
RRIRMRPPRLPRPRPRPREFPRP	0.0273
RRIRMRPPRLPRPRPRPRFDPRP	0.364
RRIRMRPPRLPRPRPRPRGMPRP	0.861
RRIRMRPPRLPRPRPRPRHDPRP	0.659
RRIRMRPPRLPRPRPRPRIDPRP	0.0569
